Experimental data taken from patent US20220298260A1 (MYTHIC THERAPEUTICS, published 2022).
Residue numbers refer to the chain shown, from its start. One block for each binder: values may come before it.

Target: T1, FOLR1 (R&D Systems, Cat #5646-FR) (human, UniProt P15328 25-233)
T1 construct: Bought soluble protein; also called Folate Receptor 1
Test: BLI, IgG on anti-human Fc sensor, 50 nM FOLR1

T1 sequence (P15328 25-233 limits assumed): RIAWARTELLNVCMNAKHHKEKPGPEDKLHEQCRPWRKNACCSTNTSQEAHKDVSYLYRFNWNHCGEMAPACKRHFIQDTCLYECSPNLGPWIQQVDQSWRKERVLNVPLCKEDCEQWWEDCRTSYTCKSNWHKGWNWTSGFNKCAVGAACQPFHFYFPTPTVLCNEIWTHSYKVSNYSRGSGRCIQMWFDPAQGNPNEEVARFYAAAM

binding result: binds
B26: MYT2258 (antibody, V domains shown)
VH: EVQLVESGGGLVQPGGSLRLSCAASGFNIRTQSIHWVRQAPGKGLEWIGDIFPIDGITDYADSVKGRFTISADTSKNTAYLQMNSLRAEDTAVYYCARGSWSHPSGMDYYLDYWGQGTLVTVSS
VL: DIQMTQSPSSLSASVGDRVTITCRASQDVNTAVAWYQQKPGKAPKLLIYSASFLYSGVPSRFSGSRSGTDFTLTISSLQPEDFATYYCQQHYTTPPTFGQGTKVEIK
notes: IgG

binding result: binds
B27: MYT2260 (antibody, V domains shown)
VH: B26 VH with H103W, S105H
VL: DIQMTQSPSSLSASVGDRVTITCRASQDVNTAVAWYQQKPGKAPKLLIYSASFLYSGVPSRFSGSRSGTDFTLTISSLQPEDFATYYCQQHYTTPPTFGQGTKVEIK
notes: IgG

binding result: binds
B28: MYT2232 (antibody, V domains shown)
VH: B26 VH with S33H, H103W
VL: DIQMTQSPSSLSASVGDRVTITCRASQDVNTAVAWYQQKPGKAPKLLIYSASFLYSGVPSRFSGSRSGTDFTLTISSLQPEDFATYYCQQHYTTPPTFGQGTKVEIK
notes: IgG

binding result: binds
B29: MYT2256 (antibody, V domains shown)
VH: B26 VH with W101H, H103W
VL: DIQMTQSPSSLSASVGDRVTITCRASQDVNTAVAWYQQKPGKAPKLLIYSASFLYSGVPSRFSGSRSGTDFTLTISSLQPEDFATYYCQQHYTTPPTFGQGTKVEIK
notes: IgG

binding result: binds
B30: MYT2267 (antibody, V domains shown)
VH: B26 VH with H103W, D112H
VL: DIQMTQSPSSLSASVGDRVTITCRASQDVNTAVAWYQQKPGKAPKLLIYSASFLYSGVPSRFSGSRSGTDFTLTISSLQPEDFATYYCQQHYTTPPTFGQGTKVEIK
notes: IgG

binding result: binds
B31: MYT2247 (antibody, V domains shown)
VH: B26 VH with D62H, H103W
VL: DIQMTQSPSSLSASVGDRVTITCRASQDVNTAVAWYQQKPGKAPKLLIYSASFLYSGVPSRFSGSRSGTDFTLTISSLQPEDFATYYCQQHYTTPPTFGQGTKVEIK
notes: IgG

binding result: binds
B32: MYT2238 (antibody, V domains shown)
VH: B26 VH with P53H, H103W
VL: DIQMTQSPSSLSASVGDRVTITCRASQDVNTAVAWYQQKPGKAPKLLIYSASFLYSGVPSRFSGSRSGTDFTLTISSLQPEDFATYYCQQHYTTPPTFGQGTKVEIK
notes: IgG

binding result: binds
B33: MYT2227 (antibody, V domains shown)
VH: B26 VH with N28H, H103W
VL: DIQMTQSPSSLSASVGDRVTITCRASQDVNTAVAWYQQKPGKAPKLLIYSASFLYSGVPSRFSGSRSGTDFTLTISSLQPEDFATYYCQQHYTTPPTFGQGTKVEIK
notes: IgG

binding result: binds
B34: MYT4502 (antibody, V domains shown)
VH: B26 VH with H103W
VL: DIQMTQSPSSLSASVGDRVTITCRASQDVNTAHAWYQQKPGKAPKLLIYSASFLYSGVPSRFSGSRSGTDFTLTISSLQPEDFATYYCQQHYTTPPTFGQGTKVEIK
notes: IgG

binding result: binds
B35: MYT4498 (antibody, V domains shown)
VH: B26 VH with H103W
VL: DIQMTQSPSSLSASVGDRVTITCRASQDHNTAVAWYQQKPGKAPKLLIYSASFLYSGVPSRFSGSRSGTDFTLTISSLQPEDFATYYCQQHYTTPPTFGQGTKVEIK
notes: IgG

binding result: binds
B36: MYT2239 (antibody, V domains shown)
VH: B26 VH with I54H, H103W
VL: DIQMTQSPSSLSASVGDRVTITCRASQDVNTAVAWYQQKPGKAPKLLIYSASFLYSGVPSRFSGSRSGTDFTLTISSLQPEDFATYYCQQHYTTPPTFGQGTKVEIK
notes: IgG

binding result: binds
B37: MYT2248 (antibody, V domains shown)
VH: B26 VH with S63H, H103W
VL: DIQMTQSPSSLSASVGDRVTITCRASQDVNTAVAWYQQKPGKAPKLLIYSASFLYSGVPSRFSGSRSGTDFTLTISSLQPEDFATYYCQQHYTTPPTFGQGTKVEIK
notes: IgG

binding result: binds
B38: MYT2265 (antibody, V domains shown)
VH: B26 VH with H103W, Y110H
VL: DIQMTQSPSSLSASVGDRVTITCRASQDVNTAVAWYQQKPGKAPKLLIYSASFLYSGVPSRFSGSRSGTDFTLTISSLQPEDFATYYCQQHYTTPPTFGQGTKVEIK
notes: IgG

binding result: binds
B39: MYT2255 (antibody, V domains shown)
VH: B26 VH with S100H, H103W
VL: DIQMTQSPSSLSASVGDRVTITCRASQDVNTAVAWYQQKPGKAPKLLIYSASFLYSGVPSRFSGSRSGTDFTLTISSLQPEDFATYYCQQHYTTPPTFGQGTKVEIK
notes: IgG

binding result: binds
B40: MYT2231 (antibody, V domains shown)
VH: B26 VH with Q32H, H103W
VL: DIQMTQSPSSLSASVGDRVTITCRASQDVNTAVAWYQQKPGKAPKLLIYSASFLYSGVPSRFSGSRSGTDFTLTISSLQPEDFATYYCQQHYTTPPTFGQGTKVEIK
notes: IgG

binding result: binds
B41: MYT2264 (antibody, V domains shown)
VH: B26 VH with H103W, Y109H
VL: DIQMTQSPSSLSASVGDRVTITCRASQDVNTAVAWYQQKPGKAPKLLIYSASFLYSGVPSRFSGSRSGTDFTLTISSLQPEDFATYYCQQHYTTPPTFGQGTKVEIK
notes: IgG

binding result: binds
B42: MYT2246 (antibody, V domains shown)
VH: B26 VH with A61H, H103W
VL: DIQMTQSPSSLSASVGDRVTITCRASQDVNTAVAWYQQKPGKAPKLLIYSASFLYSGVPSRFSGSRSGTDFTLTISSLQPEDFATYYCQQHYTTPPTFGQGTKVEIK
notes: IgG

binding result: binds
B43: MYT2268 (antibody, V domains shown)
VH: B26 VH with H103W, Y113H
VL: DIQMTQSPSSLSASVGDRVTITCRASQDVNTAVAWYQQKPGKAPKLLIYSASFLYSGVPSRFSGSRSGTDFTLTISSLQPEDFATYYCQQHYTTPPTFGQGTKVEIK
notes: IgG

binding result: binds
B44: MYT2228 (antibody, V domains shown)
VH: B26 VH with I29H, H103W
VL: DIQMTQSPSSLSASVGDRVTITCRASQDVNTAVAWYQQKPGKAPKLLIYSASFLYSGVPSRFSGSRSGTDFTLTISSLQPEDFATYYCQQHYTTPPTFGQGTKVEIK
notes: IgG

binding result: binds
B45: MYT2226 (antibody, V domains shown)
VH: B26 VH with F27H, H103W
VL: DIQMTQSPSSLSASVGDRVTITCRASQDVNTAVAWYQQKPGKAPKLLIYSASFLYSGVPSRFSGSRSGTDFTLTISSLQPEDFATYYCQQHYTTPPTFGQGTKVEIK
notes: IgG

binding result: binds
B46: MYT2236 (antibody, V domains shown)
VH: B26 VH with I51H, H103W
VL: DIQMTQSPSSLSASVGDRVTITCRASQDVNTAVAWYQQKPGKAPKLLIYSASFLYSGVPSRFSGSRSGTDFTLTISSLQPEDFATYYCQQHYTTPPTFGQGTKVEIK
notes: IgG

binding result: binds
B47: MYT4495 (antibody, V domains shown)
VH: B26 VH with H103W
VL: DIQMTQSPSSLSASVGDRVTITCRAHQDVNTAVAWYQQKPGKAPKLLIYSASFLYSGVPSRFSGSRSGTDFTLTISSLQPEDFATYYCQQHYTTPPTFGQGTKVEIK
notes: IgG

binding result: binds
B48: MYT2241 (antibody, V domains shown)
VH: B26 VH with G56H, H103W
VL: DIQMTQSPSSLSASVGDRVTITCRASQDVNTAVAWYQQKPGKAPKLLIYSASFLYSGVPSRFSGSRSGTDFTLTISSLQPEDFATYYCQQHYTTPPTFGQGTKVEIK
notes: IgG

binding result: binds
B49: MYT1581 (antibody, V domains shown)
VH: QVQLVQSGAEVVKPGASVKISCKASGYTFTGYFMNWVKQSPGQSLEWIGRIHPYDGDTFYNQKFQGKATLTVDKSSNTAHMELLSLTSEDFAVYYCTRYDGSRAMDYWGQGTTVTVSS
VL: DIVLTQSPLSLAVSLGQPAIISCKASQSVSFAGTSLMHWYHQKPGQQPRLLIYRASNLEAGVPDRFSGSGSKTDFTLTISPVEAEDAATYYCHQSREYPYTFGGGTKLEIK
notes: IgG

binding result: binds
B50: MYT1588 (antibody, V domains shown)
VH: B49 VH
VL: B49 VL with H93Q, Y100H
notes: IgG

binding result: binds
B51: MYT1584 (antibody, V domains shown)
VH: B49 VH
VL: B49 VL with H93Q, R96H
notes: IgG

binding result: binds
B52: MYT1585 (antibody, V domains shown)
VH: B49 VH
VL: B49 VL with H93Q, E97H
notes: IgG

binding result: binds
B53: MYT1586 (antibody, V domains shown)
VH: B49 VH
VL: B49 VL with H93Q, Y98H
notes: IgG

binding result: binds
B54: MYT1589 (antibody, V domains shown)
VH: B49 VH
VL: B49 VL with H93Q, T101H
notes: IgG

binding result: binds
B55: MYT1582 (antibody, V domains shown)
VH: B49 VH
VL: B49 VL with H93Q, Q94H
notes: IgG

binding result: binds
B56: MYT1583 (antibody, V domains shown)
VH: B49 VH
VL: B49 VL with H93Q, S95H
notes: IgG

The next lines start with the binder.

B1: MYT2225 (antibody, V domains shown)
VH: B26 VH with G26H, H103W
VL: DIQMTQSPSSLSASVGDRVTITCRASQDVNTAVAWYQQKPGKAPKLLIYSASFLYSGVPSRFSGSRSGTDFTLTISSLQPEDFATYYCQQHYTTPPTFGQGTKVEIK
notes: IgG
binding result: binds

B2: MYT2253 (antibody, V domains shown)
VH: B26 VH with R98H, H103W
VL: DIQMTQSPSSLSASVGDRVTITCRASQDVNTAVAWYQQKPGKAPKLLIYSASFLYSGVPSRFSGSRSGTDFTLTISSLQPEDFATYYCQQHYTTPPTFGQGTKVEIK
notes: IgG
binding result: binds

B3: MYT2237 (antibody, V domains shown)
VH: B26 VH with F52H, H103W
VL: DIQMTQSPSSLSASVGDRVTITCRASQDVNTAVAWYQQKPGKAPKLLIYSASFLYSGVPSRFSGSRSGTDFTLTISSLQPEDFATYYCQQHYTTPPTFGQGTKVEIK
notes: IgG
binding result: binds

B4: MYT4496 (antibody, V domains shown)
VH: B26 VH with H103W
VL: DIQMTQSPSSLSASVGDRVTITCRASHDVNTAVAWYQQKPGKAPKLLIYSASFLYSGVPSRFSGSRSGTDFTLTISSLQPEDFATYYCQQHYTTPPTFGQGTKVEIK
notes: IgG
binding result: binds

B5: MYT4494 (antibody, V domains shown)
VH: B26 VH with H103W
VL: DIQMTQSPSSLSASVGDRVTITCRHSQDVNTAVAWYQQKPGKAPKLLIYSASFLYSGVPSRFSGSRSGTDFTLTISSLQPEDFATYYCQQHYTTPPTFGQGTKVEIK
notes: IgG
binding result: binds

B6: MYT4500 (antibody, V domains shown)
VH: B26 VH with H103W
VL: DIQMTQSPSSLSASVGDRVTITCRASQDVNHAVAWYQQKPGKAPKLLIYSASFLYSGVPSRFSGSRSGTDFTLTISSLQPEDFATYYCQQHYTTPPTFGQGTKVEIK
notes: IgG
binding result: binds

B7: MYT4497 (antibody, V domains shown)
VH: B26 VH with H103W
VL: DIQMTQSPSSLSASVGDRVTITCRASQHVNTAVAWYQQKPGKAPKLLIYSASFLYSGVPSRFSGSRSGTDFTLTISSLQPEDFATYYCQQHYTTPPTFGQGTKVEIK
notes: IgG
binding result: binds

B8: MYT4493 (antibody, V domains shown)
VH: B26 VH with H103W
VL: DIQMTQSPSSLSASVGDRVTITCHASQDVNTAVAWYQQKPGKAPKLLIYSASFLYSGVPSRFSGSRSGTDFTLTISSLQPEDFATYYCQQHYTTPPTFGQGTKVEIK
notes: IgG
binding result: binds

B9: MYT2233 (antibody, V domains shown)
VH: B26 VH with I34H, H103W
VL: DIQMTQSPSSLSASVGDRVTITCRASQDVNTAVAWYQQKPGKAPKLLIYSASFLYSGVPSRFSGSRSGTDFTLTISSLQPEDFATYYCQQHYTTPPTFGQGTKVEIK
notes: IgG
binding result: binds

B10: MYT2242 (antibody, V domains shown)
VH: B26 VH with I57H, H103W
VL: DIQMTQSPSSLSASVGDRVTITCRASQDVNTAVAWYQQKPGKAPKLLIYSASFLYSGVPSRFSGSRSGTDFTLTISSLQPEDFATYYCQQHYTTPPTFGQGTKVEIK
notes: IgG
binding result: binds

B11: MYT2243 (antibody, V domains shown)
VH: B26 VH with T58H, H103W
VL: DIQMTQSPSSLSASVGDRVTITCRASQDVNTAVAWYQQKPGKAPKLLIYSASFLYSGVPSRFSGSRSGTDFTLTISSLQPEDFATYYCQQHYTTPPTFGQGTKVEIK
notes: IgG
binding result: binds

B12: MYT2249 (antibody, V domains shown)
VH: B26 VH with V64H, H103W
VL: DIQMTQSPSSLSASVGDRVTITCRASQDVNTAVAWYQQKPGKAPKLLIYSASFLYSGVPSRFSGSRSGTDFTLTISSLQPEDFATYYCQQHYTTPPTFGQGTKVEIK
notes: IgG
binding result: binds

B13: MYT2262 (antibody, V domains shown)
VH: B26 VH with H103W, M107H
VL: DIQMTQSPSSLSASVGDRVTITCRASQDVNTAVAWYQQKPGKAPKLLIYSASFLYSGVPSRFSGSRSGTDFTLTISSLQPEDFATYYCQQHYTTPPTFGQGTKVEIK
notes: IgG
binding result: binds

B14: MYT4499 (antibody, V domains shown)
VH: B26 VH with H103W
VL: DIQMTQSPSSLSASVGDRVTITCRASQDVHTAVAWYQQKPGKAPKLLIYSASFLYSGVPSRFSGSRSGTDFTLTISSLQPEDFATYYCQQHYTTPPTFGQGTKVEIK
notes: IgG
binding result: binds

B15: MYT2240 (antibody, V domains shown)
VH: B26 VH with D55H, H103W
VL: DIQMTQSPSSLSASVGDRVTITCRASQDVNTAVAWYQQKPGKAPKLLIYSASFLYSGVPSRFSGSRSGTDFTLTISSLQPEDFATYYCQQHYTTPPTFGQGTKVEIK
notes: IgG
binding result: binds

B16: MYT2251 (antibody, V domains shown)
VH: B26 VH with G66H, H103W
VL: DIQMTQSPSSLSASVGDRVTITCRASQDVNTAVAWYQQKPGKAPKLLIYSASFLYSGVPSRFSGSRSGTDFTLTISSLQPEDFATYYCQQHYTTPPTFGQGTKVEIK
notes: IgG
binding result: binds

B17: MYT2229 (antibody, V domains shown)
VH: B26 VH with R30H, H103W
VL: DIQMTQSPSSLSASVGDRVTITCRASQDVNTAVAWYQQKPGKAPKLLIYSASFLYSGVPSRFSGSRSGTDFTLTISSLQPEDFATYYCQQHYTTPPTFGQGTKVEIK
notes: IgG
binding result: binds

B18: MYT2235 (antibody, V domains shown)
VH: B26 VH with D50H, H103W
VL: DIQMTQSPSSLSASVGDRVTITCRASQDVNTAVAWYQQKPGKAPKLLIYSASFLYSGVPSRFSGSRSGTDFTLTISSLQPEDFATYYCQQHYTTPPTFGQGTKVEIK
notes: IgG
binding result: binds

B19: MYT2257 (antibody, V domains shown)
VH: B26 VH with S102H, H103W
VL: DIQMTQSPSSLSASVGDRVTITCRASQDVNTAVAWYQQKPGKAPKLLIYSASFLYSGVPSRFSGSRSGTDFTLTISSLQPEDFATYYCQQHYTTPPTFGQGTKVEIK
notes: IgG
binding result: binds

B20: MYT2266 (antibody, V domains shown)
VH: B26 VH with H103W, L111H
VL: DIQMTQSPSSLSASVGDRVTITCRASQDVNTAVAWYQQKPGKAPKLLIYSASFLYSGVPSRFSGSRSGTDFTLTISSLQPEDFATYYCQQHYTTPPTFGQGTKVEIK
notes: IgG
binding result: binds

B21: MYT2234 (antibody, V domains shown)
VH: B26 VH with H35A, H103W
VL: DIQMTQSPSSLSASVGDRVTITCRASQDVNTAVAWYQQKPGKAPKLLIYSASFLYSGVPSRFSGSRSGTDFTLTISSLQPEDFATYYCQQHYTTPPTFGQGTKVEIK
notes: IgG
binding result: binds

B22: MYT2263 (antibody, V domains shown)
VH: B26 VH with H103W, D108H
VL: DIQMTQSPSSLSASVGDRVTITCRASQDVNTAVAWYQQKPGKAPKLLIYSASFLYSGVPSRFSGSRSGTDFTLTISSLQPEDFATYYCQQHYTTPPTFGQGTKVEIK
notes: IgG
binding result: binds

B23: MYT2250 (antibody, V domains shown)
VH: B26 VH with K65H, H103W
VL: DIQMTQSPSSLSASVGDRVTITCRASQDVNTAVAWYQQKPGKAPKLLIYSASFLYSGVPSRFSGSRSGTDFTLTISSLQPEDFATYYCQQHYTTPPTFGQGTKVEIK
notes: IgG
binding result: binds

B24: MYT2245 (antibody, V domains shown)
VH: B26 VH with Y60H, H103W
VL: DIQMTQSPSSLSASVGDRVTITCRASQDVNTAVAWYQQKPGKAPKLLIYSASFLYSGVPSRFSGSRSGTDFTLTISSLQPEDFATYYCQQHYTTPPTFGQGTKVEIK
notes: IgG
binding result: binds

B25: MYT2230 (antibody, V domains shown)
VH: B26 VH with T31H, H103W
VL: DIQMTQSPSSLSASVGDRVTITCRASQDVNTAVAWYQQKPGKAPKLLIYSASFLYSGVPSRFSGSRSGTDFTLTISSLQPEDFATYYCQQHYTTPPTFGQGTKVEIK
notes: IgG
binding result: binds
